Tests used:
[1] = biological target: HLA-A*02 (on target cells) (human); experiment: cell-based or functional assay
[2] = biological target: HLA-A*02 blocker antigen on beads (human); experiment: cell-based or functional assay

Emax shift of the CD19-CAR activator in Jurkat cells [1]: > 10 fold
inhibition of IFNγ induction in primary T cells (MSLN CAR), HeLa target cells expressing HLA-A*02 [1]: > 5 fold
inhibition of IFNγ induction in primary T cells (MSLN CAR), SiHa target cells expressing HLA-A*02 [1]: > 10 fold
shift of the CD19 CAR EMAX, NALM6 target cells [1]: > 5 fold
shift of the EGFR CAR (CT479) EMAX, Jurkat NFAT-luciferase, HLA-A*02 transduced HeLa target cells [1]: > 5 fold
shift of the EGFR CAR EMAX, HeLa target cells [1]: > 5 fold
shift of the EGFR CAR EMAX, Jurkat NFAT-luciferase, HCT116 target cells [1]: 1.8 fold
shift of the EGFR CAR EMAX, SiHa target cells [1]: > 4 fold
shift of the MSLN CAR EMAX, K562 target cells [1]: > 5 fold
suppression of pan HLA scFv CAR activators, HLA-A*02-positive T2 cells, E:T 1:2 [1]: < 25 fold
shift of the EGFR CAR EMAX, cell-free bead assay [2]: > 9 fold
shift of the MSLN CAR EMAX, cell-free bead assay [2]: > 12 fold
Substance: HLA-A*02 PA2.1 ScFv LIR1 inhibitor (C1765) (from UniProt Q8NHL6 399-650) (receptor)

Reference: patent US20240173352A1
